Experimental data reported in patent US20050148504A1, “Cysteine protease inhibitor” (priority 2002, published 2005).

Columns and labels:
papain [1] = molecular target: T1, papain (Carica papaya, UniProt P00784); experiment: cysteine protease inhibitory activity, Z-Phe-Arg-MCA fluorescence method (Barrett et al.), papain; type: biochemical; parameters: purchased Sigma Co., Ltd
T1 sequence (P00784 134-345): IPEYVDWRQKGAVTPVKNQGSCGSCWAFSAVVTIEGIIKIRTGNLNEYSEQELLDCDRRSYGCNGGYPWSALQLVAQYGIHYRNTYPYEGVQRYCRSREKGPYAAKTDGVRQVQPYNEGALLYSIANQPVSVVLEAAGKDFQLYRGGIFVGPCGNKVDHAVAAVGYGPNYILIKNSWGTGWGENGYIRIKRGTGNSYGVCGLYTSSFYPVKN
Procedure: Casein, a partial peptide of casein, or hydrolysate of casein which can be used for the present invention has inhibitory activity against cysteine proteases such as cathepsin B, L and papain. The cysteine protease inhibitory activity can be determined in accordance with the methods of Barrett et al (Methods in Enzymology, Vol. 80, pp. 535-561, 1981). For example, Z-Phe-Arg-MCA (Benzyloxycarbonyl-L-Phenylalanyl-L-Arginine4-Methyl-Coumaryl-7-Amide: final concentration of […]: manufactured by Peptide Institute, Inc.) is added as a substrate into a solution in which casein, a partial peptide and/or a hydrolysate of casein is dissolved in 0.1 M acetic acid buffer (pH 5.5), and then a cysteine protease (papain in the present Examples: manufactured by Sigma Co., Ltd.) solution (final concentration: 15 units/ml) is added and the whole solution is mixed to allow reaction at 37° C. for 10 minutes. After that, fluorescence intensity (excitation wavelength: 370 nm, emission wavelength: 460 nm) of AMC (7-Amino-4-Methyl-Coumarin) released from the digested substrate is measured with a fluorescence spectrometer (manufactured by Hitachi, Ltd.).
(§1) The inhibitory activity was measured with reference to the method by Barrett et al. (“Methods in Enzymology,” Vol. 80, p 535-561, 1981) as described below. Namely, Z-Phe-Arg-MCA (final concentration of […]: manufactured by Peptide Institute, Inc.) was added as a substrate to a solution containing bovine β-casein peptide mixture dissolved in a 0.1 M acetic acid buffer solution pH 5.5. Then, a cysteine protease (papain in the present test: manufactured by Sigma Co., Ltd.) solution (final concentration: 15 units/ml) was added, the whole solution was mixed and the reaction was carried out at 37° C. for 10 minutes. Subsequently, fluorescence intensity (excitation wavelength: 370 nm, emission wavelength: 460 nm) of AMC released from the digested substrate was measured with a fluorescence spectrometer (manufactured by Hitachi, Ltd.).
Z-Phe-Arg-MCA (final concentration of […]: manufactured by Peptide Institute, Inc.) was added as a substrate into a solution in which a test sample was dissolved in a 0.1 M acetic acid buffer (pH 5.5). Then, a papain solution (final concentration of 15 units/ml) as a cysteine protease solution was added and mixed, and the reaction was performed at 37° C. for 10 minutes. Subsequently, fluorescence intensity (excitation wavelength: 370 nm, emission wavelength: 460 nm) of AMC released from the digested substrate was measured with a fluorescence spectrometer (manufactured by Hitachi, Ltd.).

papain [2] = molecular target: papain (UniProt P00784); experiment: cell-based or functional assay
cathepsin B = cathepsin B (Homo sapiens, UniProt P07858); experiment: cysteine protease inhibitory activity, Z-Phe-Arg-MCA fluorescence method, cathepsin B; type: biochemical; conditions: concentration of 10^−4 M
Procedure: as §1
(§2) A spectrum of cysteine protease-inhibitory activity of a test sample was measured in the same way as that of measuring the cysteine protease-inhibitory activity described in the Test Example 3, using bovine β-casein as a test sample, and papain, cathepsin B and cathepsin L as cysteine proteases.

cathepsin L = cathepsin L (Homo sapiens, UniProt P07711); experiment: cysteine protease inhibitory activity, Z-Phe-Arg-MCA fluorescence method, cathepsin L; type: biochemical; conditions: concentration of 10^−4 M
Chain of cathepsin L (P07711 114-333, species assumed): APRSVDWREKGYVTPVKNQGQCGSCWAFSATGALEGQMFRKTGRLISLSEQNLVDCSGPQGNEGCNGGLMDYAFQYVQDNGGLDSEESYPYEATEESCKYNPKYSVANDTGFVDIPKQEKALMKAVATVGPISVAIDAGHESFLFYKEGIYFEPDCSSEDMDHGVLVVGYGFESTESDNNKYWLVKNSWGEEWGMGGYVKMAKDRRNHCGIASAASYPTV
Procedure: as §1, §2

papain [3] = molecular target: T1, papain; experiment: reverse zymography using papain (SDS-polyacrylamide gel containing gelatin); conditions: 12.5% SDS-polyacrylamide gel with 0.1% gelatin; papain 37° C. 10 hours; FIG. 1 lane 6

Molecule: bovine κ-casein: bovine κ-casein used as a test sample
- inhibition of papain, in words (papain [1]; concentration of 10^−5 M): completely inhibit

Molecule: bovine κ-casein (from UniProt P02668 22-190)
- concentration at which papain is completely inhibited (papain [2]): 10 µM

Molecule: bovine β-casein peptide: peptide from Leu of 142th residue to His of 160th residue of bovine β-casein (SEQ ID No. 2) (LTDVENLHLPLPLLQSWMH; sig_peptide (1)Oc(15) casein; listed as Bos taurus)
- cysteine protease inhibitory activity (papain), in words (papain [1]; papain 15 units/ml, pH 5.5, 37° C. 10 minutes, concentration not given): having inhibitory activity

Molecule: human β-casein peptide: synthesized peptide having amino acid numbers 133 to 151 of SEQ ID No. 1 (human β-casein) (LTDLENLHLPLPLLQPLMQ; sig_peptide (1)Oc(15) casein; listed as Homo Sapiens)
- inhibition of papain, in words (papain [1]; concentration of 10^−4 M): completely inhibits
- inhibition of protease activity of papain (papain [1]; concentration of 10^−5 M): 65%

Molecule: bovine α-casein
- concentration at which papain activity is almost inhibited (papain [2]): 100 µM

B1: human β-casein: human β-casein purified by a conventional procedure, amino acid sequence of SEQ ID No. 1 (Swiss-Prot P05814) (protein, listed as Homo Sapiens)
chain: MKVLILACLVALALARETIESLSSSEESITEYKQKVEKVKHEDQQQGEDEHQDKIYPSFQPQPLIYPFVEPIPYGFLPQNILPLAQPAVVLPVPQPEIMEVPKAKDTVYTKGRVMPVLKSPTIPFFDPQIPKLTDLENLHLPLPLLQPLMQQVPQPIPQTLALPPQPLWSVPQPKVLPIPQQVVPYPQRAVPVQALLLNQELLLNPTHQIYPVTQPLAPVHNPISV
modifications: sig_peptide (1)Oc(15) casein
- inhibition of papain, in words (papain [1]; concentration of 10^−5 M): almost completely inhibits

B2: bovine β-casein: β-casein derived from bovine, amino acid sequence of SEQ ID No. 2 (Swiss-Prot P02666) (protein, listed as Bos taurus)
chain: MKVLILACLVALALARELEELNVPGEIVESLSSSEESITRINKKIEKFQSEEQQQTEDELQDKIHPFAQTQSLVYPFPGPIPNSLPQNIPPLTQTPVVVPPFLQPEVMGVSKVKEAMAPKHKEMPFPKYPVEPFTESQSLTLTDVENLHLPLPLLQSWMHQPHQPLPPTVMFPPQSVLSLSQSKVLPVPQKAVPYPQRDMPIQAFLLYQEPVLGPVRGPFPIIV
modifications: sig_peptide (1)Oc(15) casein
- inhibition of protease activity of cathepsin B, in words (cathepsin B): almost inhibits
- inhibition of protease activity of cathepsin L, in words (cathepsin L): almost inhibits
- inhibition of papain, in words (papain [1]; concentration of 10^−5 M): completely inhibits
- inhibition of papain, in words (papain [1]; concentration of 10^−5 M, listed as β-casein): completely inhibit
- band in reverse zymography using papain (papain [3]): positive band
